Results on 3 molecules are retold here after patent US7459543B2, “Modulators of antiestrogen pharmacology” (priority 2000, dated 2008).

One assay deals with ERCoA3. In words: Northern hybridization for ERCoA3 expression in MCF-7 cells. Conditions: 10^-8 M, 24 h. The assay is classed as cell-based, human. The procedure:
FIG. 8. ERCoA3 is expressed in cells that respond to tamoxifen as an agonist. (A) Total RNA was isolated from untreated parental MCF-7 cells (−), and cells treated for 24 h with 10^−8 M estradiol (E2) or 10^−8 M trans-hydroxytamoxifen (TOT), and tamoxifen resistant cells (TOT^R). (B) Total RNA was collected from untreated Hec cells and cells treated for 24 h with 10^−8 M estradiol (E2) or 10^−8 M trans-hydroxytamoxifen. Equal amounts (20 μg) of total RNA were separated by electrophoresis. Blots were probed with the random primer labeled ERCoA3 cDNA and 36B4 cDNA (to control for RNA loading).
It was determined whether there was increased expression of ERCoA3 in cells that were resistant to SERMs, specifically TOT. RNA was isolated from MCF-7 cells and also from tamoxifen-resistant (TOT^R) MCF-7 cells. Northern hybridization was performed using an ERCoA3 probe. These experiments indicated increased expression of ERCoA3 in TOT^R MCF-7 cells when compared to parental MCF-7 cells (FIG. 8A). […] Expression of ERCoA3 was also examined in another human cell line, human endometrium cancer cell line, HEC-1B.

The target of assay [1] is T1, estrogen receptor α (ERα) (Homo sapiens, UniProt P03372).
T1 construct: made in house
T1 sequence (P03372 1-595): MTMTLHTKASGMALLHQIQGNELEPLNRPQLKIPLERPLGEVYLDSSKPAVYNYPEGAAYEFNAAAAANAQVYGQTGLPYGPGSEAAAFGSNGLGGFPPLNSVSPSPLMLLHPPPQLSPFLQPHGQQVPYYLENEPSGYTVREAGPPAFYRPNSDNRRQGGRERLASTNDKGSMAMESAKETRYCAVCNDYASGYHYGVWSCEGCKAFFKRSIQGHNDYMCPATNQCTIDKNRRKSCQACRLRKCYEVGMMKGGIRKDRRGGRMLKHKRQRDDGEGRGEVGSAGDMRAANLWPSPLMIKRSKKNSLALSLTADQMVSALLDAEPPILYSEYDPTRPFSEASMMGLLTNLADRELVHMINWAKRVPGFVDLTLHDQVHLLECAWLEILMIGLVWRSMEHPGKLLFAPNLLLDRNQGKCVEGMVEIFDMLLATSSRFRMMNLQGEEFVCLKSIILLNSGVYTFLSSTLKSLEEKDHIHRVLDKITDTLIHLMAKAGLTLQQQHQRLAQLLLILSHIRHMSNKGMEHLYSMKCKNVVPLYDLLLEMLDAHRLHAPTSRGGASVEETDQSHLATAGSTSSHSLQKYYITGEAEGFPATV
In words: GST-ERCoA3 protein-protein interaction (pull-down) assay with [35S]-ERα. The following applies: vehicle, 10^-6 M E2, TOT or ICI. The assay is classed as binding. The procedure: (§1) FIG. 4. ERCoA3 preferentially interacts with antagonist-bound ERα and PRβ. In vitro translated and [^35S]-methionine-labeled (A) Estrogen Receptor α (ERα) or (B) Progesterone Receptor β (PRβ) were incubated with GST alone or GST-ERCoA3 bound to Sepharose in the presence of vehicle, 10^−6 M Estradiol (E2), 10^−6 M trans-hydroxytamoxifen (TOT), 10^−6 M ICI 182,780 (ICI), 10^−6 M R5020, or 10^−6 M RU-486 as indicated. Bound protein was eluted with excess glutathione and analyzed by 12.5% SDS-polyacrylamide gel electrophoresis. The autoradiograph is representative of 3 separate experiments. Abbreviations: E2, 17-β estradiol; TOT, transhydroxytamoxifen; ICI, ICI182,780 (a pure ER antagonist); R5020, a synthetic PR agonist, and RU-486, a partial agonist of PRβ.
A protein-protein interaction assay was used in which the affinity matrix (i.e., bound to a column) was a glutathione-S-transferase (GST) fusion protein wherein GST was fused to ERCoA3. In vitro transcribed and translated [^35S]-ERα was retained by the GST-ERCoA3 affinity column preferentially in the presence of antiestrogens, trans-hydroxytamoxifen (TOT) and ICI182,780 (ICI) when compared to estradiol (E2) (FIG. 4A). ERα was not retained on the GST protein column without ERCoA3 (or GST alone).

Assay [2] deals with T2, Progesterone Receptor β (PRβ) (Homo sapiens, UniProt P06401).
T2 sequence (P06401 1-933): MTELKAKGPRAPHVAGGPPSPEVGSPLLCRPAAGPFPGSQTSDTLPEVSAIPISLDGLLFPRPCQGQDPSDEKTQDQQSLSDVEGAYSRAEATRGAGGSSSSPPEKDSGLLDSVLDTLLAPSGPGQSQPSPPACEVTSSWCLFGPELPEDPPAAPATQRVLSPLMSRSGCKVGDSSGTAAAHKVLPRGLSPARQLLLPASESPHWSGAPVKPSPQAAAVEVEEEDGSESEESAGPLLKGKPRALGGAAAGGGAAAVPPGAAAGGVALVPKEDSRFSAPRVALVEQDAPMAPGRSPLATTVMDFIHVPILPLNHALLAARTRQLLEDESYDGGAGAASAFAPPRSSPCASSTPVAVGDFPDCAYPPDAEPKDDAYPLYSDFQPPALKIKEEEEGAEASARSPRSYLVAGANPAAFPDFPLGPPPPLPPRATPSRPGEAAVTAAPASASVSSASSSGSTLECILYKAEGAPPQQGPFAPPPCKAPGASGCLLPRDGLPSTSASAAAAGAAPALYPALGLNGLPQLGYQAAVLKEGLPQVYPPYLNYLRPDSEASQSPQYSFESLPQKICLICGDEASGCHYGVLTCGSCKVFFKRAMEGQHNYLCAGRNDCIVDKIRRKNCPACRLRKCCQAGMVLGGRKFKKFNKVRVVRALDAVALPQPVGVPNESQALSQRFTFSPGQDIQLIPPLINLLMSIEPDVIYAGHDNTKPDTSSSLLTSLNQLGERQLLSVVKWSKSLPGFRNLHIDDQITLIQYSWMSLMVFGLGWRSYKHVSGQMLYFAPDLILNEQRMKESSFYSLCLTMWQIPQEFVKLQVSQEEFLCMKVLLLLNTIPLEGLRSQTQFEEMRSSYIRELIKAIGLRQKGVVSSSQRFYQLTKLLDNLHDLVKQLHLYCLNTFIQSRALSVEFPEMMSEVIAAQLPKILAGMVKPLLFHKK
In words: GST-ERCoA3 protein-protein interaction (pull-down) assay with [35S]-PRβ. The assay is classed as binding. The following applies: vehicle, 10^-6 M R5020 or RU-486. The procedure: as §1
(§2) Somewhat different findings were made with Progesterone Receptor β (PRβ).

Another assay deals with ERα. In words: (ERE)2-TATA-CAT reporter assay in CHO cells transfected with ERα. The assay is classed as cell-based. Conditions: CHO cells cotransfected with ERCoA3 expression vector vs cmv5 control; estrogen, TOT or ICI, 24 h. The procedure: FIG. 5. ERCoA3 enhances partial agonist activity of antiestrogens. CHO cells were transfected with expression vectors for ERα and reporter construct (ERE)2-TATA-CAT. The cells were cotransfected with cmv5 control expression vector or expression vector for ERCoA3, as indicated. The cells were also transfected with a β-galactosidase internal control reporter to correct for transfection efficiency. Cells were then treated for 24 h with control vehicle or increasing concentrations of estradiol (E2), trans-hydroxytamoxifen (TOT) or ICI 182,780, as indicated. Values are the means ± S.E. from three separate experiments.
The ability of ERCoA3 to affect the response that a ligand has on ER was then tested. CHO cells were transfected with a CAT reporter construct wherein transcription of the CAT gene was regulated by a estrogen-responsive element, or with both a CAT reporter construct and an expression vector for ERCoA3. The cells were grown in either estrogen, TOT or ICI, and CAT activity was assayed.

In assay [3] the test system is ERα transcriptional activity. In words: (ERE)2-PS2-CAT reporter assay in MCF-7 cells. The assay is classed as cell-based, human. Conditions: MCF-7 cells cotransfected with ERCoA3 vs cmv5 control; 10^-8 M E2 plus increasing TOT or ICI, 24 h. The procedure:
FIG. 6. ERCoA3 attenuates the antiestrogenic effects of TOT and ICI on ERα transcriptional activity. MCF-7 cells were transfected with (ERE)2-PS2-CAT reporter construct. The cells were cotransfected with cmv5 control expression vector or expression vector for ERCoA3, as indicated. The cells were also transfected with a β-galactosidase internal control reporter to correct for transfection efficiency. Cells were then treated for 24 h with 10^−8 M estradiol (E2) and increasing concentration of trans-hydroxytamoxifen (TOT; panel A) or ICI 182,780 (ICI; panel B). Values are the means ±S.E. from three separate experiments.
Another very similar study examined the effect of ERCoA3 on the ability of TOT (FIG. 6A) and ICI (FIG. 6B) to block activation of ER. MCF-7 cells were transfected with a CAT reporter construct wherein transcription of the CAT gene was regulated by a estrogen-responsive element, or with both a CAT reporter construct and an expression vector for ERCoA3. The cells were then grown in TOT or ICI and CAT activity was assayed.

The target of assay [4] is T2, Progesterone Receptor β (PRβ). As to the kind of experiment: MMTV-CAT reporter assay in CHO cells transfected with PRβ. The assay is classed as cell-based. Also on record: expressed in transfected cells; host or cells: CHO cells. The following applies: CHO cells cotransfected with ERCoA3 vs cmv5 control; unliganded, 10^-8 M R5020 or RU-486, 24 h. The procedure: FIG. 7. ERCoA3 enhances partial agonist activity of RU-486. CHO cells were transfected with expression vectors for Progesterone Receptor β (PRβ) or reporter construct MMTV-CAT. The cells were cotransfected with cmv5 control expression vector or expression vector for ERCoA3 as indicated. The cells were also transfected with a β-galactosidase internal control reporter to correct for transfection efficiency. Cells were then treated for 24 h with 10^−8 M R5020 or RU-486. Values are the means ±S.E. from three separate experiments.
as §2
A general note: A reporter such as luciferase makes a cellular process visible.

Turning to trans-hydroxytamoxifen [TOT], the “ERCoA3 expression (Northern)” value in the assay with ERCoA3 is listed as “Neither E2 nor TOT affected ERCoA3 expression”.
As for `C[C@]12CC[C@@H]3c4ccc(O)cc4CC[C@H]3[C@@H]1CC[C@@H]2O` [E2, 17-β-estradiol], the “ERCoA3 expression (Northern)” value in the assay with ERCoA3 is on record as “Neither E2 nor TOT affected ERCoA3 expression”.

B1: ERCoA3: 79 amino acid ER coactivator protein (SEQ. ID. NO. 2); used as GST fusion or expressed from vector (protein, listed as Homo sapiens)
chain: MCGRPRRVSAGCGFADAHWTGLWTGLGEGQEGGIGPEGQASPTPDCASRWPRSASRWPWSAGLTVRDRPQLGELCMGRG
Take B1: the “retention of [35S]-ERα on GST-ERCoA3 affinity column” value in assay [1] is recorded as “binds ER but binds ER better if ER are already bound to a partial agonist or antagonist”. Moreover, the “interaction of ERCoA3 with PRβ” value in assay [2] was “interacted with both unliganded and antiprogestin- (RU-486, a partial agonist) bound PRβ”. The “CAT activity (activation of ER)” value with ERα was “increased CAT activity”. Also, the “activation of ER (CAT activity) in presence of TOT or ICI” value in assay [3] is given as “increases activation of ER”. The PRβ transcriptional activity entry in assay [4] was “enhanced the activity of both unliganded and RU-486-bound PRβ”.
